According to patent US20190367631A1 (Regeneron, published 2019):
Residue numbers refer to the chain shown, from its start. Numbers in names are those of the source.

T1: human MSR1 extracellular domain expressed with a N-terminal nonahistidine tag (His9-hMSR1); R&D Systems, Cat … (human, UniProt P21757 77-451)
T1 construct: extracellular domain; Bought reagent; also called His-hMSR1; 9xHis-hMSR1
T1 sequence: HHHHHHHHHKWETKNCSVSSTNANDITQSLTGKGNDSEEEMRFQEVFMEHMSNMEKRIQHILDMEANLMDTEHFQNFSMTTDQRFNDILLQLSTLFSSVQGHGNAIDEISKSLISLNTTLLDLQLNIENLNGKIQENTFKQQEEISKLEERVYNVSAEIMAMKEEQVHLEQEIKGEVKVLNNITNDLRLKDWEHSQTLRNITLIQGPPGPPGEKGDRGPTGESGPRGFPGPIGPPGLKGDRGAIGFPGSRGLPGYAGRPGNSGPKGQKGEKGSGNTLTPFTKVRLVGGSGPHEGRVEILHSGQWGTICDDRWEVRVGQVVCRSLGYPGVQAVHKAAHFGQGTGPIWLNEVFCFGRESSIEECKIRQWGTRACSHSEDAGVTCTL

T2: full length human MSR1 with a C-terminal Myc tag, on HEK293.Myc.hMSR1 cells (human, UniProt P21757 1-451)
T2 sequence (looked up): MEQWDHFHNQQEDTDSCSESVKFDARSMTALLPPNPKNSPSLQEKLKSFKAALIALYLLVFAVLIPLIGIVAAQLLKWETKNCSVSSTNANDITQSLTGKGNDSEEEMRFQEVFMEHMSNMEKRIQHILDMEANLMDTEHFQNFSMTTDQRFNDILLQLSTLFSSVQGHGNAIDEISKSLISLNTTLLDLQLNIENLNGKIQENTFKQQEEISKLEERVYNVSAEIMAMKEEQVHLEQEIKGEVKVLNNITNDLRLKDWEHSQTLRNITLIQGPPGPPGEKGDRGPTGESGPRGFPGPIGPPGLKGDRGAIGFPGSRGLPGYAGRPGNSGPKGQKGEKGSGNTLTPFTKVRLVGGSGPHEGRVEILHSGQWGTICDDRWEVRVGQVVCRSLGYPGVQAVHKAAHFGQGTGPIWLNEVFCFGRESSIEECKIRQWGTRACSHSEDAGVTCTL

T3: mouse MSR1 on RAW264.7 cells (mouse, UniProt P30204 1-458)
T3 construct: whole, on cells; also called MSR1 positive RAW264.7 cells
T3 sequence (looked up): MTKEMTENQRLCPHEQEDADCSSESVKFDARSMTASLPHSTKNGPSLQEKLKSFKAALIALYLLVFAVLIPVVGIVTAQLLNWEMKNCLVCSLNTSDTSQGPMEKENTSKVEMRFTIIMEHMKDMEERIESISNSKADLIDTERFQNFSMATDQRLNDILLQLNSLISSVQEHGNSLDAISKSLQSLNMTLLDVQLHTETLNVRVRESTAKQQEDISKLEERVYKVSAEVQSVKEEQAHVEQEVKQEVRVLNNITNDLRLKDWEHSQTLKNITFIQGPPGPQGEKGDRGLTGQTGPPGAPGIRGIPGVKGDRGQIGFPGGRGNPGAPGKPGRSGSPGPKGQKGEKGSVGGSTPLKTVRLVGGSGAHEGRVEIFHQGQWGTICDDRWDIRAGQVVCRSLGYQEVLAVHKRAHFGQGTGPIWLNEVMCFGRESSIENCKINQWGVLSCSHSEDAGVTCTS

T4: human MSR1 extracellular domain expressed with a N-terminal nonahistidine tag (His9-hMSR1); R&D Systems, Cat … (human, UniProt P21757 77-451)
T4 construct: extracellular domain; also called His-hMSR1; 9xHis-hMSR1; not shown: N-terminal nonahistidine tag
T4 sequence (looked up): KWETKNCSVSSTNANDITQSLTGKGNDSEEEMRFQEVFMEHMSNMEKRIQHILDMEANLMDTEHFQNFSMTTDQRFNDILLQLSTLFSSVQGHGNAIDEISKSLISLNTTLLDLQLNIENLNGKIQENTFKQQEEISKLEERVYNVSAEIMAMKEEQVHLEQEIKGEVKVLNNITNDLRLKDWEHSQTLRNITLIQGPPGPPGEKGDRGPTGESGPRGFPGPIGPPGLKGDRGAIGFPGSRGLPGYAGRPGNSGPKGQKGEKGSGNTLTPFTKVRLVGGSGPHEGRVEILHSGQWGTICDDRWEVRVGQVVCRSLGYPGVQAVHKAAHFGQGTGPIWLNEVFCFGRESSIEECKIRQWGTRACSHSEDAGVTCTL

T5: monkey MSR1 extracellular domain expressed with a N-terminal hexahistidine-myc-myc tag (HMM-mfMSR1) (monkey (Macaca fascicularis))
T5 chain: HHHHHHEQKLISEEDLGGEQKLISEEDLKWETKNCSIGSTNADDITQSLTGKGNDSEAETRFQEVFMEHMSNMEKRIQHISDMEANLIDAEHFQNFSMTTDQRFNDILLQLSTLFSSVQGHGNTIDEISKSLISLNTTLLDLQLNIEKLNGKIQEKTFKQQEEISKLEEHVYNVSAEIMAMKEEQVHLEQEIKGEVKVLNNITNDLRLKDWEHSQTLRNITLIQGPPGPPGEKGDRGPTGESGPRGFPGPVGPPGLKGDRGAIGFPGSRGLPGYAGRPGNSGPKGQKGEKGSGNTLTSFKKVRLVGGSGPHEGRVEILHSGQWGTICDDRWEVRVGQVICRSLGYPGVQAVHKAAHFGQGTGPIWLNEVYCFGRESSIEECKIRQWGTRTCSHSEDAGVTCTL

B1: H1H27766P-N297Q-LP1 (antibody, human IgG1, V domains shown)
VH: EVQLVESGGGLVQPGGSLRLSCAASGFTFSSFAMSWVRQAPGKELEWVSSISGRGGSTYYADSVRGRFTISRDNSKITLYLQMNSLRAEDTAVYYCAKDIVFRYTSSAYWYFDLWGRGTLVTVSS
VL: not shown
modifications: LXR agonist linker-payload LP1 clicked to azido-PEG3-amine on Q295 and Q297 (EU) of the heavy chain constant region
notes: antibody-drug conjugate; human IgG1 Fc with N297Q (EU); also called H1H27766P2-LP1
B2: H1xH29283P2 (antibody, V domains shown)
VH: QVQLVQSGTEVKKPGSSVKVSCKASGGTFSRYTFSWVRQAPGQGLEWMGGIIPIFGTTNYAQKFQGRVTITTDESTSTVYMELSSLRSEDTAVYYCTRGGRYGWFDPWGQGTLVTVSS
VL: not shown
notes: the prefix H1xH is not explained; captured by anti-human Fc
B3: H1H27762P-N297Q-LP1 (antibody, human IgG1, V domains shown)
VH: B2 VH with T9A, T33D, F34I, T58S, T97A
VL: not shown
modifications: LXR agonist linker-payload LP1 clicked to azido-PEG3-amine on Q295 and Q297 (EU) of the heavy chain constant region
notes: antibody-drug conjugate; human IgG1 Fc with N297Q (EU); also called H1H27762P2-LP1
B4: H2aM21227N (antibody, mouse IgG2a, V domains shown)
VH: QVQLVQSGAEVKKPGASVKVSCKVSGYTLTELSIHWVRQVPGKGLEWMGGFDPEEGETIFAQEFRDRVTLTEDTSPDTAYMELSSLKSEDAAVYYCTTPRYCNNGICYDYWGQGTLVTVSS
VL: DIQMTQSPSSLSASVGDRVTITCRASQSISNYLNWYQQKPGKAPKLLIYTASSLQSGVPSRFSGSGSGTDFTLTISSLQTEDFATYYCQQSYSNFPITFGQGTRLEIKR
B5: H1H21231N-N297Q (antibody, human IgG1, V domains shown)
VH: EVQLVESGGGLVQPGGSLRLSCAASGFTFSDHYMDWVRQAPGKGLEWVGRTRNKANSHTTEYTASVTGRFTISRDDSRNSLYLQMNSLKTEDTAVYYCVRAGIIGTLFDYWGQGTLVTVSS
VL: B4 VL with S7F, N31S, Y32F, Y36F, L46F, T50A, T80P, N94S, F95P
notes: human IgG1 Fc with N297Q point mutation
B6: H1M21231N (antibody, V domains shown)
VH: B5 VH
VL: B4 VL with S7F, N31S, Y32F, Y36F, L46F, T50A, T80P, N94S, F95P
B7: H1H27736P-N297Q (antibody, human IgG1, V domains shown)
VH: EVQLVESGGGLVQPGGSLRLSCAASGFTFSSYAMSWVRQAPGKGLEWVSSISGSGDSTFYTDSVKGRFTISRDISKNTLYLQMNSLRAEDTAVYYCAKDRLLWFGDLISPFHYWGQGTLVTVSS
VL: EIVLTQSPGTLSLSPGERATLSCRASQSVSNIYLAWYQQKPAQAPRLLIYGASSRATGIPDRFSVSGSGTDFTLTISRLEPEDFAVYYCQQYGSSPRTFGQGTKVEIKR
notes: human IgG1 Fc with N297Q
B8: H2aM21235N (antibody, mouse IgG2a, V domains shown)
VH: B5 VH with H58Y, T63A, T67S, R78K, V99T
VL: DIQMTQSPSSLSASVGDRVTITCRASQIIGRYLNWFQQKPGKVPKLLIYAASSLQRGVPSRFSGSGSGTDFTLTISSLQPEDFATYYCQQSYNTPPITFGQGTRLEIKR
B9: H1H27761P-N297Q (antibody, V domains shown)
VH: EVQLVESGGDLVQPGGSLRLSCSASGFTFNIYAMSWVRQAPGKGLEWVSGISGSGGSTYYADSVKGRFTISRDNSKNTLYFQMNSLRVEDTAVYYCAKKISSSSYYYYAMDVWGQGTTVTVSS
VL: not shown
notes: Human IgG1 Fc with N297Q; tied by the numerical identifier; also called H1H27761P2-N297Q; H1H27761P2
B10: H1xH29282P2 (antibody, V domains shown)
VH: EVQLVESGGGLVQPGGSLRLSCAASGFTFSTYAMSWVRQAPGKGLEWVSTISGRSDITYFADSVKGRFTVSRDNSKTTLYLQMNSLRAEDTAVYYCATDDDLPLDYWGQGTLVTVSS
VL: not shown
notes: as for B2
B11: H1xH29273P2 (antibody, V domains shown)
VH: QVQLVESGGGVVQSGRSLRLSCAAAGFTFSNYGMHWVRQAPGKGLEWVALMSFDGSDKYYADSVKGRFTISRDNSKNTLYLQMNSLRAEDTALYYCAKGYDFWSGYWDYWGQGTLVTVSS
VL: not shown
notes: as for B2
B12: H2bM21234N (antibody, V domains shown)
VH: QVQLQESGPGLVKPSETLSLTCTVTGGSISRNYWSWIRQPPGKGLEWIGYIYYSGSIDYNPSLKSRVTISVDTSKNQFSLKLSSMTAADTAVYYCARDRWNWKYGMDVWGQGTTVIVSS
VL: EIVLTQSPGTLSLSPGERATLSCRASQTVRNNYLAWYHQKPGQAPRLLIYGASSRATGIPDRFSGSGSGTDFTLTISRLEPEDFTVYYCHQYGNSPWTFGQGTKMEIKR

Legend:
[1] = molecular target: T1, human MSR1 extracellular domain …; assay: SPR Biacore T200, 25 C, antibody captured by anti-human Fc, His9-hMSR1 injected;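 further: running buffer HBS-ET pH 7.4, rates from sensorgrams fitted to a 1:1 model including mass transport limitation, KD and half-life derived from the kinetic constants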
Experimental: All binding studies were performed in 10 mM HEPES, 300 mM NaCl, 3 mM EDTA, and 0.05% v/v Surfactant Tween-20, pH 7.4 (HBS-ET) running buffer at 25° C.
(§1) The association rate (kₐ) and dissociation rate (kd) were determined by fitting the real-time binding sensorgrams to a 1:1 binding model with mass transport limitation using Scrubber 2.0c curve-fitting software. Binding dissociation equilibrium constant (KD) and dissociative half-life (t½) were calculated from the kinetic rates as:

[2] = molecular target: T2, full length human MSR1 with a …; assay: cell-based or functional assay
[3] = molecular target: T3, mouse MSR1 on RAW264.7 cells; assay: flow cytometry, RAW264.7 cells
Experimental: To block binding to Fc receptors, RAW264.7 cells were incubated for 30 minutes at 4° C. with 500 pg/mL mouse IgG (Jackson ImmunoResearch, Cat #015-000-003) diluted in staining buffer, while B16F10.9 cells remained in staining buffer. […] The signal to noise (S/N) was determined by calculating the ratio of the anti-MSR1 antibodies or the control antibodies MFI to the unstained sample MFI (Table 11).

[4] = molecular target: T4, human MSR1 extracellular domain …; assay: SPR Biacore, 25 C, antibody captured;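 further: rates from 1:1 fit with mass transport limitation of real-time sensorgrams, HEPES-buffered saline with EDTA and Tween-20 at pH 7.4, KD and t½ derived from the kinetic rates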
Experimental: (§2) Binding affinities and kinetic constants of human anti-MSR1 antibodies for different MSR1 reagents were determined by real-time surface plasmon resonance (Biacore 4000). All binding studies were performed in 10 mM HEPES, 150 mM NaCl, 3 mM EDTA, and 0.05% v/v Surfactant Tween-20, pH 7.4 (HBS-ET) running buffer at 25° C. and 37° C.
as §1

[5] = molecular target: T5, monkey MSR1 extracellular domain …; assay: SPR Biacore, 25 C, antibody captured;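 further: rates from 1:1 fit with mass transport limitation of real-time sensorgrams, HEPES-buffered saline with EDTA and Tween-20 at pH 7.4, KD and t½ derived from the kinetic rates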
Experimental: as §2, §1

[6] = molecular target: T4, human MSR1 extracellular domain …; assay: SPR Biacore, 37 C, antibody captured
Experimental: as §2, §1

[7] = molecular target: T5, monkey MSR1 extracellular domain …; assay: SPR Biacore, 37 C, antibody captured
Experimental: as §2, §1
Wherever % Inhibition of Dil-Acetylated LDL uptake is given: test concentration or dose not given here.
Wherever % Inhibition of Dil-Oxidized LDL uptake is given: test concentration or dose not given here.

| Binder | Kd [1] | koff [1] | kon [1] | t½ [1] | % Inhibition of Dil-Acetylated LDL uptake [2] | % Inhibition of Dil-Oxidized LDL uptake [2] | IC50 of Dil-Acetylated LDL uptake inhibition [2] | also measured |
| --- | --- | --- | --- | --- | --- | --- | --- | --- |
| B1 | 0.0649 nM | 2.7e-05 s⁻¹ | 416000 M⁻¹ s⁻¹ | 427 min |  |  |  |  |
| B2 | 13.4 nM | 0.00185 s⁻¹ | 139000 M⁻¹ s⁻¹ | 6.2 min |  |  |  |  |
| B3 | 1.29 nM | 0.000623 s⁻¹ | 483000 M⁻¹ s⁻¹ | 18.5 min |  |  |  |  |
| B4 |  |  |  |  | 62% | 90% | 3.7 nM | IC50 of Dil-Oxidized LDL uptake inhibition [2]: 3.1 nM |
| B5 |  |  |  |  |  |  |  | MFI [3]: 3580 MFI; S/N (MFI over unstained MFI) [3]: 1 |
| B6 |  |  |  |  | 50% | 79% | > 20 nM | IC50 of Dil-Oxidized LDL uptake inhibition [2]: 3.7 nM |
| B7 |  |  |  |  |  |  |  | MFI [3]: 3550 MFI; S/N (MFI over unstained MFI) [3]: 1 |
| B8 |  |  |  |  | 24% | 64% | > 100 nM |  |
| B9 |  |  |  |  |  |  |  | Kd [4]: 1.63 nM; koff [4]: 0.00051 s⁻¹; kon [4]: 312000 M⁻¹ s⁻¹; t½ [4]: 23 min; Kd [5]: 1.88 nM; koff [5]: 0.000597 s⁻¹; kon [5]: 318000 M⁻¹ s⁻¹; t½ [5]: 19 min; Kd [6]: 3.26 nM; koff [6]: 0.00222 s⁻¹; kon [6]: 681000 M⁻¹ s⁻¹; t½ [6]: 5 min; Kd [7]: 2.32 nM; koff [7]: 0.00214 s⁻¹; kon [7]: 920000 M⁻¹ s⁻¹; t½ [7]: 5 min |
| B10 | 43.7 nM | 0.00362 s⁻¹ | 82800 M⁻¹ s⁻¹ | 3.2 min |  |  |  |  |
| B11 | 93 nM | 0.00763 s⁻¹ | 82000 M⁻¹ s⁻¹ | 1.5 min |  |  |  |  |
| B12 |  |  |  |  | 19% | 61% | 1.8 nM | IC50 of Dil-Oxidized LDL uptake inhibition [2]: 4.5 nM |
